From IntAct's records for PubMed 17267444

Legend:
[1] = target: scar2_arath SCAR2 (UniProt Q5XPJ9)
[2] = target: scarl_arath WAVE5 (UniProt Q5XPK0)
[3] = target: spk1_arath SPK1 (UniProt Q8SAB7)
[4] = target: scar1_arath SCAR1 (UniProt Q6AWX6)
scar1_arath SCAR1, sequence (Q6AWX6 whole entry): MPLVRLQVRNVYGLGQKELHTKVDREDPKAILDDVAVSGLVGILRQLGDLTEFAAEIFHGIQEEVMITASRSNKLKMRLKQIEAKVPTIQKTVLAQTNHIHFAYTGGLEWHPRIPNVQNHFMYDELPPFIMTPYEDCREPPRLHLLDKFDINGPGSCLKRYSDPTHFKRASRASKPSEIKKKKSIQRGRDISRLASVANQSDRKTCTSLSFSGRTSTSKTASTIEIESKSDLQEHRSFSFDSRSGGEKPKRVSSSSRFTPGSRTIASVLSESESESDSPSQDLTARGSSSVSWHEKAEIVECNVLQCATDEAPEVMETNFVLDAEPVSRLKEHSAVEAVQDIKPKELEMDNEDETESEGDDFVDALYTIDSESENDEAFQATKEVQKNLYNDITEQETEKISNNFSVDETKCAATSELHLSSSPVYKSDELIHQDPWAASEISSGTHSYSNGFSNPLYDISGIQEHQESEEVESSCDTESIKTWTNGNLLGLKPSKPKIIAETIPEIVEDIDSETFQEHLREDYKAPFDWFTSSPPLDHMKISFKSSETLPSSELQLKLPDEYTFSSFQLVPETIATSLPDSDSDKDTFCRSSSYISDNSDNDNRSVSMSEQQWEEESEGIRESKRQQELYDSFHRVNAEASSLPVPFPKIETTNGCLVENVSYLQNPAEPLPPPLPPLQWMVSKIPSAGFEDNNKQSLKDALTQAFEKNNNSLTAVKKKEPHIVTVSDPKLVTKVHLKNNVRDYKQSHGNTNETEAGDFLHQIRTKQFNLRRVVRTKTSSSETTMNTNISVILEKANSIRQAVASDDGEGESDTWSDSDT

Rac-like GTP-binding protein ARAC9 (Arabidopsis thaliana (Mouse-ear cress)), Q9XGU0 G27V, sequence (Q9XGU0 whole entry G27V): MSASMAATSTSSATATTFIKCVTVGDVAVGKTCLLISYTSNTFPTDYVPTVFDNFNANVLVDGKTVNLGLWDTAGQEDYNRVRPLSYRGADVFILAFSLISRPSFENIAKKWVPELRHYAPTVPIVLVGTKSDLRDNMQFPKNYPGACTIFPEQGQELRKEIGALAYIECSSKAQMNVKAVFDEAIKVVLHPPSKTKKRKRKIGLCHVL
scar2_arath SCAR2, sequence (Q5XPJ9 whole entry): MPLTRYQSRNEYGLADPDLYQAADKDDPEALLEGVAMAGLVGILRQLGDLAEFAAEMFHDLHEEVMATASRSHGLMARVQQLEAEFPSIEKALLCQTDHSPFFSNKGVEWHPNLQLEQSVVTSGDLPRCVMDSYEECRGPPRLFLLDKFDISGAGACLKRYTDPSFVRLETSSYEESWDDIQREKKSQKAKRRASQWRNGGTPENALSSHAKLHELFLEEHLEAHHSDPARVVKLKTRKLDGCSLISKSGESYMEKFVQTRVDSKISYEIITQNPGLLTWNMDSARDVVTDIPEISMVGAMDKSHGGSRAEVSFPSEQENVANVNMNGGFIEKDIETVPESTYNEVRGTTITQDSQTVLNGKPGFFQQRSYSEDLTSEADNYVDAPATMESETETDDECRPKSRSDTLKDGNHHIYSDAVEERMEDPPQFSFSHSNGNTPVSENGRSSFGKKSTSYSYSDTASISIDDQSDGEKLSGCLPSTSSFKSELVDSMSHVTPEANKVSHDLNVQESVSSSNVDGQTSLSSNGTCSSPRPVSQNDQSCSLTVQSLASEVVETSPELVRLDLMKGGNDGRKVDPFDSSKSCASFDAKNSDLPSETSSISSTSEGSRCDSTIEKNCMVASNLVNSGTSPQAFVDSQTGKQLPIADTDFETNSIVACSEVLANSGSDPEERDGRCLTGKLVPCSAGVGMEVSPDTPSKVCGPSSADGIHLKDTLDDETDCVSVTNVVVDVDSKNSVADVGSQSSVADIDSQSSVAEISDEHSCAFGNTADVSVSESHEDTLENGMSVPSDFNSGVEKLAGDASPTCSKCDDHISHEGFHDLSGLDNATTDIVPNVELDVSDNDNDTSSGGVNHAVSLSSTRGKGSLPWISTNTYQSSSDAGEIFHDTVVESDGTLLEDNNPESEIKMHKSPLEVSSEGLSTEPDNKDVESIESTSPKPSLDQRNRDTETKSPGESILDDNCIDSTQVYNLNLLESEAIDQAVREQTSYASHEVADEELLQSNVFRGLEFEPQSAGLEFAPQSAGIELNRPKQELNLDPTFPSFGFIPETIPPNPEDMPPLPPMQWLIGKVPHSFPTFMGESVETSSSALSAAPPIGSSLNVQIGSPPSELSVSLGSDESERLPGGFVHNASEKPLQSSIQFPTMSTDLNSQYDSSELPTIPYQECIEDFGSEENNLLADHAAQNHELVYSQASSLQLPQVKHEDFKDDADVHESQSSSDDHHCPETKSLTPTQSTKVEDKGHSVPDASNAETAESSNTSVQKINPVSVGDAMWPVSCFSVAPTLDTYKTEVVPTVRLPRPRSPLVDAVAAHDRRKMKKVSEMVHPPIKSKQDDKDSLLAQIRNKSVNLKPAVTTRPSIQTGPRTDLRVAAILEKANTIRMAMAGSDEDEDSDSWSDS
spk1_arath SPK1, sequence (Q8SAB7 whole entry): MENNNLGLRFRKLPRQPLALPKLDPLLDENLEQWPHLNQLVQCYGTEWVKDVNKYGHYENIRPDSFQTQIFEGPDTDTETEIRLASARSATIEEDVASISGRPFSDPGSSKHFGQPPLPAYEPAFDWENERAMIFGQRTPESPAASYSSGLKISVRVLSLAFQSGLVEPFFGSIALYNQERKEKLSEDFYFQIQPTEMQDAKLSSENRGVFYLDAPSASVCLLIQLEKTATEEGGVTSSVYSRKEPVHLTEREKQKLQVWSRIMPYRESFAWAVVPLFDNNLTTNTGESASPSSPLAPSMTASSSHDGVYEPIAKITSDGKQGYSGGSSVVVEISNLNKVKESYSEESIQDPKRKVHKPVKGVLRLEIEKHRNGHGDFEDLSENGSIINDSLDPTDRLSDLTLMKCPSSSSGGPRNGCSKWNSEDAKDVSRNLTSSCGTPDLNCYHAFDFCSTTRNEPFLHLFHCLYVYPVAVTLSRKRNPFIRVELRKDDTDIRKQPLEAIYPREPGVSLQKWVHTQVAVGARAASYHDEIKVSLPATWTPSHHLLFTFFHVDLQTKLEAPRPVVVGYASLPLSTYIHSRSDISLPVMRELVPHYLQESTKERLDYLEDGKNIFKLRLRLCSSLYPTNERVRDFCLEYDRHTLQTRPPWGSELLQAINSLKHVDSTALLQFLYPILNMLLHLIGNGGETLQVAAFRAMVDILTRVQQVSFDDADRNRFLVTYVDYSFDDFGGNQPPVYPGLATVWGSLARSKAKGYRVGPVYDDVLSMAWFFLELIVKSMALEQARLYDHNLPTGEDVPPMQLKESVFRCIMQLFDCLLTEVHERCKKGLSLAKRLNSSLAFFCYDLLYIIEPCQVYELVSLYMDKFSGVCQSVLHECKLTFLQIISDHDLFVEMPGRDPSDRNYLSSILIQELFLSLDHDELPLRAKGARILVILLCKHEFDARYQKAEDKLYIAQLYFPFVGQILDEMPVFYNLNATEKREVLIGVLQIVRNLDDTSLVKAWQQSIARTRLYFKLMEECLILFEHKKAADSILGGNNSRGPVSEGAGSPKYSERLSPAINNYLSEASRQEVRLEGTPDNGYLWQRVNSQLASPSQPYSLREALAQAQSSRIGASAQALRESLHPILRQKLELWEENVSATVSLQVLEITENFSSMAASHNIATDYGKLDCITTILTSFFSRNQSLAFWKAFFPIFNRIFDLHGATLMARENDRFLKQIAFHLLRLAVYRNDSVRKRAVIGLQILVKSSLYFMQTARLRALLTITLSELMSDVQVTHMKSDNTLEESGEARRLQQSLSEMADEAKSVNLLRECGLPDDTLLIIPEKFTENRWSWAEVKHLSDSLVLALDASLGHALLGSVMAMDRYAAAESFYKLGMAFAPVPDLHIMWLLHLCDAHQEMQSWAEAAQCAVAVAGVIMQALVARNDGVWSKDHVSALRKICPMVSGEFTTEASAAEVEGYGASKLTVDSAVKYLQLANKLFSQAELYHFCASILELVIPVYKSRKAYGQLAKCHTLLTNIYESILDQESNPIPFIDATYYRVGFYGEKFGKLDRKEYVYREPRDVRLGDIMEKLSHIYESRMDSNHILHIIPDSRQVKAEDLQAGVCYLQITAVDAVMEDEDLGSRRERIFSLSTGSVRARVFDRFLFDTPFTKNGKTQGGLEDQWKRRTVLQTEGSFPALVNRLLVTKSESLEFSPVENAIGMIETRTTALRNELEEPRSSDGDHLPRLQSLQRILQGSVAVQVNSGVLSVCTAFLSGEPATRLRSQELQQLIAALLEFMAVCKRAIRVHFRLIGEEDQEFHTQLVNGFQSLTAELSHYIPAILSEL
Rac-like GTP-binding protein ARAC2 (Arabidopsis thaliana (Mouse-ear cress)), Q38903 T20D, sequence (Q38903 whole entry T20D): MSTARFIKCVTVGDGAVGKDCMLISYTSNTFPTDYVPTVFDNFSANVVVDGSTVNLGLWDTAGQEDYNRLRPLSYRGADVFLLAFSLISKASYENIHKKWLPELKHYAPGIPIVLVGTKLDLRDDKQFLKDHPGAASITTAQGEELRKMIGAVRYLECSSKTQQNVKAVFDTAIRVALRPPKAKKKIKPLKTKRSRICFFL

Row | effect of a mutation on the interaction [1] | effect of a mutation on the interaction [2] | effect of a mutation on the interaction [3] | effect of a mutation on the interaction [4] | Substance
1 | disrupting interaction |  |  |  | Rac-like GTP-binding protein ARAC2 (Arabidopsis thaliana (Mouse-ear cress)), Q38903 T20D
2 |  | disrupting interaction | disrupting interaction | disrupting interaction | Rac-like GTP-binding protein ARAC9 (Arabidopsis thaliana (Mouse-ear cress)), Q9XGU0 G27V
